In series [1] the test system is hydrogel of P-1. The series can be described thus: Gel-sol transition and rheology. Format: physicochemical. To be noted: 7 days.
A short description of series [2]: TEM of hydrogel and solutions. It counts as physicochemical. To be noted: solution at 16.6 mM.
For series [3], the target named is proteinase K (Parengyodontium album, UniProt P06873). It counts as in vitro ADME. To be noted: 37 °C, 24 h.
Series [4] concerns the molecule itself. The series can be described thus: hydrogelation + TEM.
Series [5] has as its target T1, P-1 (Nap-FF-LGFNI, heptapeptide derivative).
T1 sequence (peptide, 2-(naphthalen-2-yl)acetic group (Nap) on the N-terminus): FFLGFNI
The series can be described thus: ITC. Background: ITC needs no label: the signal is the heat of the interaction.

Here are results for four molecules from publication PMC4941208 (Journal of the American Chemical Society, 2015).

By Kd is commonly meant a measure of binding affinity in units of concentration. A higher Kd goes with a looser complex. What is called stoichiometry N is a count of units in the complex or per binding partner.

No end group written: not given here. *: point of attachment. GlcN = OC[C@H]1OC(O)[C@H](N*)[C@@H](O)[C@@H]1O; Acetyl(2-naphthyl) = O=C(Cc1ccc2ccccc2c1)*

proteinase K, sequence (P06873 106-384): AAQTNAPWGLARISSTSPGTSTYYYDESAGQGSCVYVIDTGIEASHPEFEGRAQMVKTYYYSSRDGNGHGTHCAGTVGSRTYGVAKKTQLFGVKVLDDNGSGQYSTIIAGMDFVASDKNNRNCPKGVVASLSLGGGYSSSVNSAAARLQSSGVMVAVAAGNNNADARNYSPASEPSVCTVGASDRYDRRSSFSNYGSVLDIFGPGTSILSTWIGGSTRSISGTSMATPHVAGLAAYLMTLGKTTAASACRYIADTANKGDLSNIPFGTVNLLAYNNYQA

For “GP-2: Glycoconjugate of nucleobase, peptide, saccharide: thymine at N-terminal and glucosamine at C-terminal of TTPV (thymine-TTPV-GlcN)”, the “G' times smaller than that of hydrogel of P-1” value in series [1] (4 equiv of compound) is reported as “about 300 times”. Also, the “Max G' of P-1 after addition of 4 equiv of compound” value in series [1] (hydrogel of P-1 622 μM, pH 6.4, 300 μL + 50 μL 15 mM compound (4:1)) came to 0.06 Pa. Further, in series [2], the “nanostructures in TEM images of the solution” value was “hardly any ordered nanostructures”. Further, in series [3] (hydrogel of P-1 + compound 1:1, proteinase K 3.2 U/mL), the “Hydrogelator P-1 remaining in mixture with 1 equiv of compound” value is listed as 45.0 ± 0.4%. Moreover, the “Hydrogelator P-1 remaining in mixture with 4 equiv of compound” value in series [3] (hydrogel of P-1 + compound 4:1, proteinase K 3.2 U/mL) came out at 24.2 ± 2.0%.

B1: P-1 (Nap-FF-LGFNI, heptapeptide derivative) (peptide)
peptide: {Acetyl(2-naphthyl)}-FFLGFNI
For B1, in series [4], the binding result was “binds”.

B2: GP-2 (thymine-TTPV-glucosamine, conjugate of nucleobase, peptide and saccharide) (peptide)
peptide: thymine-TTPV-GlcN
As for B2, in series [5], the dissociation constant Kd is 262 µM, the dH is -4.11 kcal/mol and the stoichiometry N came to 1.04.

B3: P-3 (thymine-TTPV, non-glycosylated control of GP-2) (peptide)
peptide: thymine-TTPV
In series [5], B3 registered an equilibrium dissociation constant (Kd) of 235 µM, a dH of -3.13 kcal/mol and a stoichiometry N of 1.38.
